# Results taken from IntAct's records for PubMed 24290141.
# B1: Autophagy-related protein 13 (Homo sapiens), O75143 (parent)
# chain: METDLNSQDRKDLDKFIKFFALKTVQVIVQARLGEKICTRSSSSPTGSDWFNLAIKDIPEVTHEAKKALAGQLPAVGRSMCVEISLKTSEGDSMELEIWCLEMNEKCDKEIKVSYTVYNRLSLLLKSLLAITRVTPAYRLSRKQGHEYVILYRIYFGEVQLSGLGEGFQTVRVGTVGTPVGTITLSCAYRINLAFMSTRQFERTPPIMGIIIDHFVDRPYPSSSPMHPCNYRTAGEDTGVIYPSVEDSQEVCTTSFSTSPPSQLSSSRLSYQPAALGVGSADLAYPVVFAAGLNATHPHQLMVPGKEGGVPLAPNQPVHGTQADQERLATCTPSDRTHCAATPSSSEDTETVSNSSEGRASPHDVLETIFVRKVGAFVNKPINQVTLTSLDIPFAMFAPKNLELEDTDPMVNPPDSPETESPLQGSLHSDGSSGGSSGNTHDDFVMIDFKPAFSKDDILPMDLGTFYREFQNPPQLSSLSIDIGAQSMAEDLDSLPEKLAVHEKNVREFDAFVETLQ
# Variants of: B1
# Conditions: with MAP1LC3A
row,Variant,effect of a mutation on the interaction
1,D442A,decreasing interaction strength
2,D443A,decreasing interaction strength
3,F444A,decreasing interaction strength
4,V445A,decreasing interaction strength
5,M446A,decreasing interaction strength
6,I447A,decreasing interaction strength
